Tests used:
[1] = biological target: endogenous Protein Kinase A catalytic subunit (PKA-Cα) of COS-1 cells; test: co-immunoprecipitation (IP: V5 antibody), western blot band intensity quantified with ImageJ; conditions: COS-1 cells expressing GRTH-V5, parent: est. 1.1, read off a plot
[2] = biological target: endogenous Protein Kinase A catalytic subunit (PKA-Cα) of COS-1 cells; test: co-immunoprecipitation (IP: PKA-Cα antibody), western blot band intensity quantified with ImageJ; conditions: COS-1 cells expressing GRTH-V5, parent: est. 1.1, read off a plot

Row | response (Arbitrary units) [1] | response (Arbitrary units) [2] | Substance
1 | 0.88 | 0.88 | Gonadotropin Regulated Testicular Helicase (GRTH/DDX25), wild type, V5-His tagged (from UniProt Q9UHL0) E165A
2 | 0.68 | 0.76 | Gonadotropin Regulated Testicular Helicase (GRTH/DDX25), wild type, V5-His tagged (from UniProt Q9UHL0) E165A; K240A
3 | 0.34 | 0.34 | Gonadotropin Regulated Testicular Helicase (GRTH/DDX25), wild type, V5-His tagged (from UniProt Q9UHL0) T239A

Reference: article PMC6491591
